Source: PMC1188057, “Dynamic assembly, localization and proteolysis of the Bacillus subtilis SMC complex” (BMC Cell Biology, 2005)

Key:
[1] = target: the molecule itself; experiment: SEC + other: sucrose gradient centrifugation; native weight of purified SMC from sedimentation coefficient 6.6 and Stokes radius 8.5; monomers to dimer
[2] = target: the molecule itself; experiment: SEC; analytical gel filtration, Superdex 200 10/300 GL; 50 mM HEPES, 300 mM NaCl, pH 8.0; proteins incubated 30 min; ScpA and ScpB alone or mixed (1:2.5, 1:0.83, 1:10), fractions on SDS-PAGE

Protein	stoichiometry N [1]	stoichiometry N [2]
SMC protein (Bacillus subtilis), His-tagged, purified (natural protein, UniProt P51834 1-1186, looked up, SMC, Bacillus subtilis; monomeric size 135 kDa as printed; also called wild-type SMC; wild type SMC) MFLKRLDVIGFKSFAERISVDFVKGVTAVVGPNGSGKSNITDAIRWVLGEQSARSLRGGKMEDIIFAGSDSRKRLNLAEVTLTLDNDDHFLPIDFHEVSVTRRVYRSGESEFLINNQPCRLKDIIDLFMDSGLGKEAFSIISQGKVEEILSSKAEDRRSIFEEAAGVLKYKTRKKKAENKLFETQDNLNRVEDILHELEGQVEPLKIQASIAKDYLEKKKELEHVEIALTAYDIEELHGKWSTLKEKVQMAKEEELAESSAISAKEAKIEDTRDKIQALDESVDELQQVLLVTSEELEKLEGRKEVLKERKKNAVQNQEQLEEAIVQFQQKETVLKEELSKQEAVFETLQAEVKQLRAQVKEKQQALSLHNENVEEKIEQLKSDYFELLNSQASIRNELQLLDDQMSQSAVTLQRLADNNEKHLQERHDISARKAACETEFARIEQEIHSQVGAYRDMQTKYEQKKRQYEKNESALYQAYQYVQQARSKKDMLETMQGDFSGFYQGVKEVLKAKERLGGIRGAVLELISTEQKYETAIEIALGASAQHVVTDDEQSARKAIQYLKQNSFGRATFLPLSVIRDRQLQSRDAETAARHSSFLGVASELVTFDPAYRSVIQNLLGTVLITEDLKGANELAKLLGHRYRIVTLEGDVVNPGGSMTGGAVKKKNNSLLGRSRELEDVTKRLAEMEEKTALLEQEVKTLKHSIQDMEKKLADLRETGEGLRLKQQDVKGQLYELQVAEKNINTHLELYDQEKSALSESDEERKVRKRKLEEELSAVSEKMKQLEEDIDRLTKQKQTQSSTKESLSNELTELKIAAAKKEQACKGEEDNLARLKKELTETELALKEAKEDLSFLTSEMSSSTSGEEKLEEAAKHKLNDKTKTIELIALRRDQRIKLQHGLDTYERELKEMKRLYKQKTTLLKDEEVKLGRMEVELDNLLQYLREEYSLSFEGAKEKYQLETDPEEARKRVKLIKLAIEELGTVNLGSIDEFERVNERYKFLSEQKEDLTEAKNTLFQVIEEMDEEMTKRFNDTFVQIRSHFDQVFRSLFGGGRAELRLTDPNDLLHSGVEIIAQPPGKKLQNLNLLSGGERALTAIALLFSILKVRPVPFCVLDEVEAALDEANVFRFAQYLKKYSSDTQFIVITHRKGTMEEADVLYGVTMQESGVSKVISVKLEETKEFVQ	2	
ScpB (Bacillus subtilis), His-tagged, purified (natural protein, UniProt P35155 1-197, looked up, ScpB, Bacillus subtilis; elutes at 65 kDa in gel filtration (dimer)) MGLDIVNWKAIVEALLYAAGDEGLTKKQLLTVLEIEEPELNTIMADVADEYRGDTRGIELIEYADTYMLSTKKDFAPYLKKLIEVPSKGLSQASLEVLAIVSYKQPITRAEIEEIRGVKSERILHSLVAKALLCEVGRADGPGRAILYGTTPTFLEQFGLKTLDELPPLPENAEEDVLQEEADLFFENFNQTFEDIK		2
